Assays:
HeLa Kyoto [1] = assay: solubility in G1/S (NP-40 vs SDS abundance) (log2 ratio); higher = more soluble; details: cell cycle stage: G1/S
HeLa Kyoto [2] = assay: melting temperature (median over replicates), in situ; higher = more thermally stable
HeLa Kyoto [3] = assay: solubility change mitosis vs G1/S (difference of NP-40 vs SDS log2 ratios) (log2 ratio difference); higher = more soluble in mitosis
HeLa Kyoto [4] = assay: thermal stability score vs G1/S (z-score of summed log2 fold changes over temperatures); higher = more thermally stable than in G1/S
[5] = cell cycle stage: early G1 (4.5 h after nocodazole release)
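For melting temperature (median over replicates), in situ in this document: HeLa Kyoto cells synchronized by double thymidine or nocodazole block, proteins quantified by TMT10plex mass spectrometry, three independent biological replicates.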
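For solubility change mitosis vs G1/S (difference of NP-40 vs SDS log2 ratios) in this document: synchronized HeLa Kyoto cells (double thymidine block for G1/S, nocodazole release for mitosis), protein amounts in NP-40 versus SDS lysates quantified by mass spectrometry, three biological replicates.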
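For solubility in G1/S (NP-40 vs SDS abundance) in this document: HeLa Kyoto cells arrested at G1/S by double thymidine block, proteins quantified by TMT10plex mass spectrometry in mild NP-40 versus SDS extracts, three biological replicates.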
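For thermal stability score vs G1/S (z-score of summed log2 fold changes over temperatures) in this document: synchronized HeLa Kyoto cells, proteins quantified by TMT10plex mass spectrometry, three biological replicates, mitosis taken 0.5 h after nocodazole release, G1/S directly after double thymidine block.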

Sequence	solubility in G1/S (log2) (HeLa Kyoto [1])	melting temperature (HeLa Kyoto [2]; cell cycle stage: G1/S)	melting temperature (HeLa Kyoto [2]; cell cycle stage: mitosis)	solubility change mitosis (log2) (HeLa Kyoto [3])	thermal stability score (HeLa Kyoto [4]; [5])	thermal stability score (HeLa Kyoto [4]; cell cycle stage: mitosis)
MGAYLSQPNTVKCSGDGVGAPRLPLPYGFSAMQGWRVSMEDAHNCIPELDSETAMFSVYDGHGGEEVALYCAKYLPDIIKDQKAYKEGKLQKALEDAFLAIDAKLTTEEVIKELAQIAGRPTEDEDEKEKVADEDDVDNEEAALLHEEATMTIEELLTRYGQNCHKGPPHSKSGGGTGEEPGSQGLNGEAGPEDSTRETPSQENGPTAKAYTGFSSNSERGTEAGQVGEPGIPTGEAGPSCSSASDKLPRVAKSKFFEDSEDESDEAEEEEEDSEECSEEEDGYSSEEAENEEDEDDTEEAEEDDEEEEEEMMVPGMEGKEEPGSDSGTTAVVALIRGKQLIVANAGDSRCVVSEAGKALDMSYDHKPEDEVELARIKNAGGKVTMDGRVNGGLNLSRAIGDHFYKRNKNLPPEEQMISALPDIKVLTLTDDHEFMVIACDGIWNVMSSQEVVDFIQSKISQRDENGELRLLSSIVEELLDQCLAPDTSGDGTGCDNMTCIIICFKPRNTAELQPESGKRKLEEVLSTEGAEENGNSDKKKKAKRD [PPM1G]	0.104	48.4 °C	49.4 °C	-0.0729	2.65	8.41
MGCFFSKRRKADKESRPENEEERPKQYSWDQREKVDPKDYMFSGLKDETVGRLPGTVAGQQFLIQDCENCNIYIFDHSATVTIDDCTNCIIFLGPVKGSVFFRNCRDCKCTLACQQFRVRDCRKLEVFLCCATQPIIESSSNIKFGCFQWYYPELAFQFKDAGLSIFNNTWSNIHDFTPVSGELNWSLLPEDAVVQDYVPIPTTEELKAVRVSTEANRSIVPISRGQRQKSSDESCLVVLFAGDYTIANARKLIDEMVGKGFFLVQTKEVSMKAEDAQRVFREKAPDFLPLLNKGPVIALEFNGDGAVEVCQLIVNEIFNGTKMFVSESKETASGDVDSFYNFADIQMGI [RP2]	-0.343	51.6 °C	51.1 °C	-0.158	-0.738	-0.982
MGCIKSKGKDSLSDDGVDLKTQPVRNTERTIYVRDPTSNKQQRPVPESQLLPGQRFQTKDPEEQGDIVVALYPYDGIHPDDLSFKKGEKMKVLEEHGEWWKAKSLLTKKEGFIPSNYVAKLNTLETEEWFFKDITRKDAERQLLAPGNSAGAFLIRESETLKGSFSLSVRDFDPVHGDVIKHYKIRSLDNGGYYISPRITFPCISDMIKHYQKQADGLCRRLEKACISPKPQKPWDKDAWEIPRESIKLVKRLGAGQFGEVWMGYYNNSTKVAVKTLKPGTMSVQAFLEEANLMKTLQHDKLVRLYAVVTREEPIYIITEYMAKGSLLDFLKSDEGGKVLLPKLIDFSAQIAEGMAYIERKNYIHRDLRAANVLVSESLMCKIADFGLARVIEDNEYTAREGAKFPIKWTAPEAINFGCFTIKSDVWSFGILLYEIVTYGKIPYPGRTNADVMTALSQGYRMPRVENCPDELYDIMKMCWKEKAEERPTFDYLQSVLDDFYTATEGQYQQQP [LYN]	-0.416	51.1 °C	50.7 °C	-0.0796	1.11	0.805
MGDAADPREMRKTFIVPAIKPFDHYDFSRAKIACNLAWLVAKAFGTENVPEELQEPFYTDQYDQEHIKPPVVNLLLSAELYCRAGSLILKSDAAKPLLGHDAVIQALAQKGLYVTDQEKLVTERDLHKKPIQMSAHLAMIDTLMMAYTVEMVSIEKVIACAQQYSAFFQATDLPYDIEDAVMYWINKVNEHLKDIMEQEQKLKEHHTVEAPGGQKSPSKWFWKLVPARYRKEQTLLKQLPCIPLVENLLKDGTDGCALAALIHFYCPDVVRLEDICLKETMSLADSLYNLQLIQEFCQEYLNQCCHFTLEDMLYAASSIKSNYLVFMAELFWWFEVVKPSFVQPRVVRPQGAEPVKDMPSIPVLNAAKRNVLDSSSDFPSSGEGATFTQSHHHLPSRYSRPQAHSSASGGIRRSSSMSYVDGFIGTWPKEKRSSVHGVSFDISFDKEDSVQRSTPNRGITRSISNEGLTLNNSHVSKHIRKNLSFKPINGEEEAESIEEELNIDSHSDLKSCVPLNTNELNSNENIHYKLPNGALQNRILLDEFGNQIETPSIEEALQIIHDTEKSPHTPQPDQIANGFFLHSQEMSILNSNIKLNQSSPDNVTDTKGALSPITDNTEVDTGIHVPSEDIPETMDEDSSLRDYTVSLDSDMDDASKFLQDYDIRTGNTREALSPCPSTVSTKSQPGSSASSSSGVKMTSFAEQKFRKLNHTDGKSSGSSSQKTTPEGSELNIPHVVAWAQIPEETGLPQGRDTTQLLASEMVHLRMKLEEKRRAIEAQKKKMEAAFTKQRQKMGRTAFLTVVKKKGDGISPLREEAAGAEDEKVYTDRAKEKESQKTDGQRSKSLADIKESMENPQAKWLKSPTTPIDPEKQWNLASPSEETLNEGEILEYTKSIEKLNSSLHFLQQEMQRLSLQQEMLMQMREQQSWVISPPQPSPQKQIRDFKPSKQAGLSSAIAPFSSDSPRPTHPSPQSSNRKSASFSVKSQRTPRPNELKITPLNRTLTPPRSVDSLPRLRRFSPSQVPIQTRSFVCFGDDGEPQLKESKPKEEVKKEELESKGTLEQRGHNPEEKEIKPFESTVSEVLSLPVTETVCLTPNEDQLNQPTEPPPKPVFPPTAPKNVNLIEVSLSDLKPPEKADVPVEKYDGESDKEQFDDDQKVCCGFFFKDDQKAENDMAMKRAALLEKRLRREKETQLRKQQLEAEMEHKKEETRRKTEEERQKKEDERARREFIRQEYMRRKQLKLMEDMDTVIKPRPQVVKQKKQRPKSIHRDHIESPKTPIKGPPVSSLSLASLNTGDNESVHSGKRTPRSESVEGFLSPSRCGSRNGEKDWENASTTSSVASGTEYTGPKLYKEPSAKSNKHIIQNALAHCCLAGKVNEGQKKKILEEMEKSDANNFLILFRDSGCQFRSLYTYCPETEEINKLTGIGPKSITKKMIEGLYKYNSDRKQFSHIPAKTLSASVDAITIHSHLWQTKRPVTPKKLLPTKA [CAMSAP2]	0.00851	51.7 °C	53 °C	-0.0823	1.04	2.88
MGDMANNSVAYSGVKNSLKEANHDGDFGITLAELRALMELRSTDALRKIQESYGDVYGICTKLKTSPNEGLSGNPADLERREAVFGKNFIPPKKPKTFLQLVWEALQDVTLIILEIAAIVSLGLSFYQPPEGDNALCGEVSVGEEEGEGETGWIEGAAILLSVVCVVLVTAFNDWSKEKQFRGLQSRIEQEQKFTVIRGGQVIQIPVADITVGDIAQVKYGDLLPADGILIQGNDLKIDESSLTGESDHVKKSLDKDPLLLSGTHVMEGSGRMVVTAVGVNSQTGIIFTLLGAGGEEEEKKDEKKKEKKNKKQDGAIENRNKAKAQDGAAMEMQPLKSEEGGDGDEKDKKKANLPKKEKSVLQGKLTKLAVQIGKAGLLMSAITVIILVLYFVIDTFWVQKRPWLAECTPIYIQYFVKFFIIGVTVLVVAVPEGLPLAVTISLAYSVKKMMKDNNLVRHLDACETMGNATAICSDKTGTLTMNRMTVVQAYINEKHYKKVPEPEAIPPNILSYLVTGISVNCAYTSKILPPEKEGGLPRHVGNKTECALLGLLLDLKRDYQDVRNEIPEEALYKVYTFNSVRKSMSTVLKNSDGSYRIFSKGASEIILKKCFKILSANGEAKVFRPRDRDDIVKTVIEPMASEGLRTICLAFRDFPAGEPEPEWDNENDIVTGLTCIAVVGIEDPVRPEVPDAIKKCQRAGITVRMVTGDNINTARAIATKCGILHPGEDFLCLEGKDFNRRIRNEKGEIEQERIDKIWPKLRVLARSSPTDKHTLVKGIIDSTVSDQRQVVAVTGDGTNDGPALKKADVGFAMGIAGTDVAKEASDIILTDDNFTSIVKAVMWGRNVYDSISKFLQFQLTVNVVAVIVAFTGACITQDSPLKAVQMLWVNLIMDTLASLALATEPPTESLLLRKPYGRNKPLISRTMMKNILGHAFYQLVVVFTLLFAGEKFFDIDSGRNAPLHAPPSEHYTIVFNTFVLMQLFNEINARKIHGERNVFEGIFNNAIFCTIVLGTFVVQIIIVQFGGKPFSCSELSIEQWLWSIFLGMGTLLWGQLISTIPTSRLKFLKEAGHGTQKEEIPEEELAEDVEEIDHAERELRRGQILWFRGLNRIQTQIRVVNAFRSSLYEGLEKPESRSSIHNFMTHPEFRIEDSEPHIPLIDDTDAEDDAPTKRNSSPPPSPNKNNNAVDSGIHLTIEMNKSATSSSPGSPLHSLETSL [ATP2B1]	-0.179	54.1 °C	53.4 °C	-0.103	0.336	1.72
MGDMKTPDFDDLLAAFDIPDIDANEAIHSGPEENEGPGGPGKPEPGVGSESEDTAAASAGDGPGVPAQASDHGLPPPDISVVSVIVKNTVCPEQSEALAGGSAGDGAQAAGVTKEGPVGPHRMQNGFGSPEPSLPGTPHSPAPPSGGTWKEKGMEGKTPLDLFAHFGPEPGDHSDPLPPSAPSPTREGALTPPPFPSSFELAQENGPGMQPPVSSPPLGALKQESCSPHHPQVLAQQGSGSSPKATDIPASASPPPVAGVPFFKQSPGHQSPLASPKVPVCQPLKEEDDDEGPVDKSSPGSPQSPSSGAEAADEDSNDSPASSSSRPLKVRIKTIKTSCGNITRTVTQVPSDPDPPAPLAEGAFLAEASLLKLSPATPTSEGPKVVSVQLGDGTRLKGTVLPVATIQNASTAMLMAASVARKAVVLPGGTATSPKMIAKNVLGLVPQALPKADGRAGLGTGGQKVNGASVVMVQPSKTATGPSTGGGTVISRTQSSLVEAFNKILNSKNLLPAYRPNLSPPAEAGLALPPTGYRCLECGDAFSLEKSLARHYDRRSMRIEVTCNHCARRLVFFNKCSLLLHAREHKDKGLVMQCSHLVMRPVALDQMVGQPDITPLLPVAVPPVSGPLALPALGKGEGAITSSAITTVAAEAPVLPLSTEPPAAPATSAYTCFRCLECKEQCRDKAGMAAHFQQLGPPAPGATSNVCPTCPMMLPNRCSFSAHQRMHKNRPPHVCPECGGNFLQANFQTHLREACLHVSRRVGYRCPSCSVVFGGVNSIKSHIQTSHCEVFHKCPICPMAFKSGPSAHAHLYSQHPSFQTQQAKLIYKCAMCDTVFTHKPLLSSHFDQHLLPQRVSVFKCPSCPLLFAQKRTMLEHLKNTHQSGRLEETAGKGAGGALLTPKTEPEELAVSQGGAAPATEESSSSSEEEEVPSSPEPPRPAKRPRRELGSKGLKGGGGGPGGWTCGLCHSWFPERDEYVAHMKKEHGKSVKKFPCRLCERSFCSAPSLRRHVRVNHEGIKRVYPCRYCTEGKRTFSSRLILEKHVQVRHGLQLGAQSPGRGTTLARGSSARAQGPGRKRRQSSDSCSEEPDSTTPPAKSPRGGPGSGGHGPLRYRSSSSTEQSLMMGLRVEDGAQQCLDCGLCFASPGSLSRHRFISHKKRRGVGKASALGLGDGEEEAPPSRSDPDGGDSPLPASGGPLTCKVCGKSCDSPLNLKTHFRTHGMAFIRARQGAVGDN [ZNF687]	-0.224	49 °C	50.3 °C	0.08	0.612	1.77
MGDPERPEAAGLDQDERSSSDTNESEIKSNEEPLLRKSSRRFVIFPIQYPDIWKMYKQAQASFWTAEEVDLSKDLPHWNKLKADEKYFISHILAFFAASDGIVNENLVERFSQEVQVPEARCFYGFQILIENVHSEMYSLLIDTYIRDPKKREFLFNAIETMPYVKKKADWALRWIADRKSTFGERVVAFAAVEGVFFSGSFAAIFWLKKRGLMPGLTFSNELISRDEGLHCDFACLMFQYLVNKPSEERVREIIVDAVKIEQEFLTEALPVGLIGMNCILMKQYIEFVADRLLVELGFSKVFQAENPFDFMENISLEGKTNFFEKRVSEYQRFAVMAETTDNVFTLDADF [RRM2B]	0.00384	56.5 °C	54.2 °C	-0.132	-1.2	0.292

Source: the supplement of paper PMC5998384
